Laboratory results: patent US20240262878A1, “PHOTOACTIVATABLE GASDERMIN PROTEINS” (THE BOARD OF TRUSTEES OF THE UNIVERSITY OF ILLINOIS, priority 2021, published 2024)
“Also recorded” adds a separate entry of the source.

T1: GSDMD pores (Homo sapiens, UniProt P57764)
T1 construct: His-SUMO (N, cleaved yes); made in house; host or cells: E. coli BL21
T1 sequence (P57764 1-275 limits assumed): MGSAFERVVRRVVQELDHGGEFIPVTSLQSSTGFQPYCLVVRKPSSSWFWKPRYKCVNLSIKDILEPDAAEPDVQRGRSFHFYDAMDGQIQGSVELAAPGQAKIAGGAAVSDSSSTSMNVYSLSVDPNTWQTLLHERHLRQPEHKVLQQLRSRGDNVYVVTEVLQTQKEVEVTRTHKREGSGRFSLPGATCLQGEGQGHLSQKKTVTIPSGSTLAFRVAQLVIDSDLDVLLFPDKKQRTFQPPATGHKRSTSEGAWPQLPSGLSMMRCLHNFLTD

B1: GSDMD: purified recombinant full length human GSDMD, activated by caspase-1 (protein, UniProt P57764 1-484, looked up)
chain: MGSAFERVVRRVVQELDHGGEFIPVTSLQSSTGFQPYCLVVRKPSSSWFWKPRYKCVNLSIKDILEPDAAEPDVQRGRSFHFYDAMDGQIQGSVELAAPGQAKIAGGAAVSDSSSTSMNVYSLSVDPNTWQTLLHERHLRQPEHKVLQQLRSRGDNVYVVTEVLQTQKEVEVTRTHKREGSGRFSLPGATCLQGEGQGHLSQKKTVTIPSGSTLAFRVAQLVIDSDLDVLLFPDKKQRTFQPPATGHKRSTSEGAWPQLPSGLSMMRCLHNFLTDGVPAEGAFTEDFQGLRAEVETISKELELLDRELCQLLLEGLEGVLRDQLALRALEEALEQGQSLGPVEPLDGPAGAVLECLVLSSGMLVPELAIPVVYLLGALTMLSETQHKLLAEALESQTLLGPLELVGSLLEQSAPWQERSTMSLPPGLLGNSWGEGAPAWVLLDECGLELGEDTPHVCWEPQAQGRMCALYASLALLSGLSQEPH
modifications: full-length activated by caspase-1
B2: PhoDer: optogenetically activatable human GSDMD with photocleavable linker between N- and C-terminal domains, SEQ ID NO: 33 (protein)
chain: MGSAFERVVRRVVQELDHGGEFIPVTSLQSSTGFQPYCLVVRKPSSSWFWKPRYKCVNLSIKDILEPDAAEPDVQRGRSFHFYDAMDGQIQGSVELAAPGQAKIAGGAAVSDSSSTSMNVYSLSVDPNTWQTLLHERHLRQPEHKVLQQLRSRGDNVYVVTEVLQTQKEVEVTRTHKREGSGRFSLPGATCLQGEGQGHLSQKKTVTIPSGSTLAFRVAQLVIDSDLDVLLFPDKKQRTFQPPATGHKRSTSEGAWPQLPSGLSMMRCLHNGGGSVIPDYFKQSFPEGYSWERSMTYEDGGICIATNDITMEGDSFINKIHFKGTNFPPNGPVMQKRTVGWEASTEKMYERDGVLKGDVKMKLLLKGGGHYRCDYRTTYKVKQKPVKLPDYHFVDHRIEILSHDKDYNKVKLYEHAVARNSTDSMDELYKGGSGGMVSKGEETITSVIKPDMKNKLRMEGNVNGHAFVIEGEGSGKPFEGIQTIDLEVKEGAPLPFAYDILTTAFHYGNRVFTKYPRGGGVPAEGAFTEDFQGLRAEVETISKELELLDRELCQLLLEGLEGVLRDQLALRALEEALEQGQSLGPVEPLDGPAGAVLECLVLSSGMLVPELAIPVVYLLGALTMLSETQHKLLAEALESQTLLGPLELVGSLLEQSAPWQERSTMSLPPGLLGNSWGEGAPAWVLLDECGLELGEDTPHVCWEPQAQGRMCALYASLALLSGLSQEPH
modifications: photocleavable linker

Columns and labels:
living endothelial cells = assay: Whole-cell patching after injection of activated recombinant GSDMD; type: cell-based; conditions: injection of activated protein, n=15
From the text: To further address whether the calcium dynamics primarily reflected that of GSDMD pores, whole-cell patching was directly recorded in living endothelial cells, which also undergo pyroptosis. […] Additionally, as befitting a large pore, the GSDMD pore opening/closing dynamics were not restricted to calcium observations. Calcium flares were visualized, which occurred in coincidence with the transient flux of a large fluorogenic molecule, within the same spatiotemporal context in living cells.

GSDMD pores = molecular target: T1, GSDMD pores; assay: Free-standing planar lipid bilayer electrophysiology of reconstituted GSDMD pores; type: biochemical
Experimental: Protein Purification. Plasmid encoding the full length human GSDMD with a N-terminal His-SUMO tag was transformed into E. coli BL21 strain. The cultures were grown at 37° C. until OD600 0.8, and protein expression was induced with 0.2 mM isopropyl β-D-1-thiogalactopyranoside (IPTG) overnight at 20° C. The cells were harvested by centrifugation and the pellet was resuspended in 20 mM Tris buffer, pH 7.5, 50 mM NaCl, 5 mM imidazole, 20 mM MgCl2, 10 mM KCl, 0.5 mM TCEP, 0.1 mM protease inhibitor, and DNase I. After resuspension, cells were disrupted by high-pressure and centrifuged at 30,000 g at 4° C. for 1 hour. The supernatant was incubated for 2 hours at room temperature with pre-equilibrated Ni-NTA affinity resin (Thermo Scientific) and then passed through a column for gravity flow purification. The column was washed with 20 column volumes of resuspension buffer, and the fusion protein was eluted with three column volumes of the same buffer with 250 mM imidazole. SUMO-tag cleavage was achieved by addition of ULP1 protease to the solution and subsequent dialysis overnight at 4° C. against 20 mM Tris buffer, pH 7.5, 50 mM NaCl, 0.5 mM TCEP. GSDMD was eluted from a second round of purification through pre-equilibrated Ni-NTA affinity resin. The protein was further purified by HI-TRAP® Q ion-exchange resin and a SUPERDEX® 75 gel filtration column (GE Healthcare) pre-equilibrated with 20 mM Tris buffer, pH 7.5, 50 mM NaCl, 0.5 mM TCEP. The purified protein was concentrated to 20 mg/ml and frozen at −80° C.
Free-Standing Lipid Bilayer Formation and Electrophysiology. For the lipid bilayer, a bilayer chamber with a polystyrene cuvette was used. In addition, the folding method, which is based on Langmuir-Blodgett film formation (Kroemer et al. (2009) Cell Death Differ. 16:3-11; Weavers et al. (2016) Cell 165:1658-1671) was employed. Monolayers that were spread in the air-water interface were faced at the chamber hole (Bergsbaken & Fink (2009) Nat. Rev. Microbiol. 7:99-109; Mulvihill et al. (2018) EMBO J. 37 (14): e98321). In brief, a shallow trough made of polystyrene was filled with recording solution, and the surface was separated into two parts by one of the cuvette walls. Bilayers were formed by monolayers of 1:3 1-palmitoyl-2-oleoylphosphatidylethanolamine (POPE)/1-palmitoyl-2-oleoylphosphatidylcholine (POPC) (Avanti-lipids) in pentane; where appropriate, phosphoinositides of the indicated headgroup were introduced with di-oleoyl (18:1) fatty acid chains at 10% relative concentration. A small amount of phospholipid, dispersed in pentane solution, was dropped on one of the water surfaces and as pentane evaporated, the lipid molecules remained at the air-water interface. The movements of the lipid molecules became less vigorous, and eventually the lipid molecules packed together to form a monolayer. For the formation of the planar lipid bilayer by the folding method, a monolayer was formed at the air-water interface in each compartment. Upon raising the recording solution level by adding more solution, the monolayer ran up on the cuvette surface and passed through the hole, where the two monolayers from both sides encountered each other and formed a bilayer. The membrane formed by this method has been referred to as a “solvent-free” membrane. The advantage of this method over other methods, like the painting method, is the capacity to form an asymmetrical membrane in which the lipid composition of either leaflet is arbitrarily defined (Kayagaki et al. (2015) Nature 526: 666-671). Once formed, the membrane retains this asymmetry for a long time because the flip-flop or exchange of the lipid molecules between both leaflets of the membrane is very slow.
For incorporation of the GSDMD into the lipid bilayer, 2 μM of the purified GSDMD protein was added to the cis side chamber along with 2 μM of caspase 1. The specific membrane capacitance of the membrane formed by the folding method was 0.6-0.8 μF/cm^2. […]

Hela cells [1] = assay: Modulating molecular transport of a cell by light activation of PhoDer (GFP efflux, phalloidin influx, antibody delivery); type: cell-based
Experimental: Using the PhoDer protein, it was determined whether a large molecule, i.e., an impermeable dye, fluorescent protein or an IgG antibody, could be transported into or out of a living cell via light-inducible activation of the PhoDer construct.
GFP Efflux. Cells expressing GFP were transfected with the PhoDer protein and illuminated intermittently for 1 hour. Over time the gasdermin pore grew larger and GFP fluorescence was captured on a fluorescence microscope using a 40× objective.
Phalloidin Influx. Phalloidin is a cell impermeable dye used in the labeling of F-actin. Cells were transfected with the PhoDer protein and contacted with phalloidin in the cell medium. The cells were subsequently illuminated and permeation of the phalloidin was monitored. […] As such, control gasdermin pore formation was capable of mediating cargo delivery in the absence of cell death.
Antibody Delivery. Hela cells expressing PhoDer were placed in medium containing a fluorescently tagged anti-tubulin monoclonal IgG antibody (˜150 kDa, ˜14 nm in size). Before exposure to light, antibody fluorescence was evident in the medium. […] Super-resolution imaging of the cells was carried out using STORM (Stochastic Optical Reconstruction Microscopy). […] Advantageously, the cells remained intact and alive thereby allowing for analysis of cytoskeletal tubulin and nuclear tubulin. […] Given that cytoskeletal and nuclear tubulin have distinct functions apart from their structural roles in forming microtubules, delivery of the anti-tubulin antibody via the present invention allows for further subcellular analysis of tubulin in living cells.

Hela cells [2] = assay: Optogenetic activation of PhoDer, membrane-targeted jRCaMP1b calcium flare imaging and fluctuation analysis; type: cell-based
[3] = tested on: RAW264.7 and mouse bone marrow-derived macrophages (BMDM); assay: Optogenetic activation of PhoDer in transiently transfected macrophages, calcium response; type: cell-based; conditions: transiently transfected RAW264.7 and mouse BMDM
Experimental: Cell Culture. HeLa and RAW264.7 cells were maintained in Dulbecco's Modified Eagle Medium (DMEM) medium supplemented with 10% fetal bovine serum (FBS) and 1% penicillin and streptomycin. Cells were transfected at 50%-70% confluency using LIPOFECTAMINE® 2000 transfection reagent and incubated for 24 hours before imaging. Cells were never serum-starved. To examine endogenous inflammatory activation, RAW264.7 cells were treated with 100 ng/μL lipopolysaccharide (LPS, Invivogen) at the beginning of each experiment. Pretreatment to bias membrane composition by phosphatidylinositol 4,5-bisphosphate (PIP2) modifying enzymes was performed by incubating Hela cells in Hanks' Balanced Salt Solution (HBSS) buffer with inhibitors at 37° C. for 10 minutes to prior imaging at the following concentrations: for phosphoinositide 3-kinase (PI3K), cells were treated 10 μM wortmannin (Tocris); and for phospholipase C (PLC), cells were treated with 10 μM U73122 (Tocris). Cells were removed from the incubator and allowed to come to thermal equilibrium before being imaged in HBSS buffer at room temperature.
Fluorescence Imaging, Optogenetic Activation, and Post-Processing. […]

Molecule	single pore currents, whole-cell patching (living endothelial cells)	mean current of single pores (GSDMD pores; POPE/POPC baseline bilayer) [pA]	open probability (GSDMD pores; POPE/POPC baseline bilayer)	time to micro-currents (protein-membrane interaction) after protein introduction (GSDMD pores; POPE/POPC baseline bilayer, GSDMD + caspase-1, n=20 bilayers) [min]	ion selectivity of pores (GSDMD pores; ramp protocol, dual rectification)	time cells observed intact and adherent after antibody delivery (Hela cells [1])	delivery of fluorescently tagged anti-tubulin monoclonal IgG antibody (Hela cells [1]; Hela cells, about 5 minute blue-light activation)	cell lysis after phalloidin delivery (calcium imaging) (Hela cells [1]; blue-light activation)	phalloidin influx, F-actin labeling (Hela cells [1]; blue-light activation, phalloidin in cell medium)	GFP efflux (Hela cells [1]; cells expressing GFP, illuminated intermittently for 1 hour)	average circularity (minor/major radii ratio) of the flares (Hela cells [2])	pores that persisted after the mean open time and reopened (Hela cells [2]) [%]	calcium response upon optogenetic activation (Hela cells [2]; Hela cells expressing PhoDer, membrane-targeted jRCaMP1b)	time in which calcium flares maximized (Hela cells [2]; average, n=21 pores) [min]	cooperative coefficient of pore closing (Hela cells [2]; mean of n=21, R^2=0.996)	average time pores were open (Hela cells [2]; n=21 pores) [min]	mean diameter reached by calcium flares (Hela cells [2]; n=21 pores) [μm]	calcium response upon optogenetic activation [3]
B1	showed single pore currents	32	~0.2	27.2 ± 2.7	not inherently ion-selective													
B2						at least 24 hours	the fluorescent antibody was delivered into the interior of the cell	did not lyse	allowed phalloidin to permeate and bind F-actin; also recorded: delivers actin labels into living cells	GFP left the cell	0.75	~57	caused spontaneous calcium flares at sporadic locations on the plasma membrane	0.35	0.73	1.55	~10	initiated clearly localized transient calcium flares
